According to the supplement of paper PMC10567573:

B1: ZNF649 (parent)
chain: DECEKAYFYMSCLVKHKRIHSREK

Variants of: B1
Experiment: protein stability index of a GFP-peptide fusion (GPS, HEK-293T) (PSI 1-6); higher = more stable
Details: c terminus: a fixed tail appended
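Also: lentivirally expressed fusions sorted by FACS into six bins by GFP to DsRed ratio, PSI derived from sequencing read proportions per bin multiplied by bin number.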

| Variant | protein stability index |
| --- | --- |
| DECEKAYFYMSCLVTHKRIHSREK | 2.16 |
| DECEKAYFYMSCLVKHKRWHSREK | 2.81 |
| DECEKAYFYSSCLVKHKRIHSREK | 3.19 |
| DECEKAYFYMFCLVKHKRIHSREK | 1.66 |
| DECEKAYFYMSCTVKHKRIHSREK | 2.81 |
| DEPEKAYFYMSCLVKHKRIHSREK | 2.77 |
| DECEKAYFYMSCLVKHKRIISREK | 2.09 |
| DMCEKAYFYMSCLVKHKRIHSREK | 1.41 |
| DECEKAYFYMSCLVKHKRIHSRGK | 2.62 |
| DECEKAYFYMSCLVKHKRIHSRWK | 2.23 |
| DECEKAYFYMRCLVKHKRIHSREK | 2.47 |
| DECEIAYFYMSCLVKHKRIHSREK | 1.79 |
| DECEKAYFYMSCLVKHKRIHSVEK | 2.32 |
| DECEKIYFYMSCLVKHKRIHSREK | 1.89 |
| DECEKAIFYMSCLVKHKRIHSREK | 2.23 |
| DECEKAYFYMYCLVKHKRIHSREK | 2.68 |
| DECEKAYFYMSCLVKHKRIHSREN | 2.54 |
| DECEKAYFYMSLLVKHKRIHSREK | 2.23 |
| DECEKAYFYMSCLVKHFRIHSREK | 2.83 |
| DECEKAYFYMSCLVKHKRIHSRER | 2.42 |
| DEGEKAYFYMSCLVKHKRIHSREK | 2.92 |
| DECEKAYFYMSCLVKHKRIHSIEK | 2.24 |
| DECEKAYFYMSCLVKHKRPHSREK | 3.3 |
| DECEKAYFYMSCLVKHKRIHSRIK | 2.42 |

| Variant | protein stability index |
| --- | --- |
| DECEKVYFYMSCLVKHKRIHSREK | 1.96 |
| DECEYAYFYMSCLVKHKRIHSREK | 1.82 |
| DECETAYFYMSCLVKHKRIHSREK | 2.64 |
| DECEKAYFYMSCLVKHKRIHSQEK | 2.28 |
| DECEKAYFYMSCLDKHKRIHSREK | 3.73 |
| DECEKAYFYMICLVKHKRIHSREK | 1.76 |
| DECEKAYFYCSCLVKHKRIHSREK | 2.75 |
| DECWKAYFYMSCLVKHKRIHSREK | 1.99 |
| DECEKAYFYMSCCVKHKRIHSREK | 3.27 |
| DECEKAYFYMSCLVKHGRIHSREK | 2.42 |
| DECEKAYFYASCLVKHKRIHSREK | 3.61 |
| DECEKAYFYMSCLVKHIRIHSREK | 1.68 |
| DECEKAYFYMSCLVKHKRVHSREK | 3.18 |
| DECEKAYFYMSCLVKHKRIHSFEK | 2.09 |
| DECEKAYFYMSQLVKHKRIHSREK | 3.09 |
| DECEKAYFYMSCLVKHRRIHSREK | 2.39 |
| IECEKAYFYMSCLVKHKRIHSREK | 1.98 |
| DECEKAYEYMSCLVKHKRIHSREK | 4.18 |
| DECEKAYFYMSCLVKHKRIHSRLK | 2.99 |
| DECEKAYFYMSCDVKHKRIHSREK | 4.25 |
| AECEKAYFYMSCLVKHKRIHSREK | 2.41 |
| DECEKAYFYMSCLVKHKRIRSREK | 2.59 |
| DECEKAYFYMMCLVKHKRIHSREK | 2.37 |
| DECEKAYFYMSCLVKHKRIWSREK | 2.4 |

| Variant | protein stability index |
| --- | --- |
| DEHEKAYFYMSCLVKHKRIHSREK | 2.35 |
| DECEKAYFYMSCLVKHKRINSREK | 2.57 |
| DECEKAYIYMSCLVKHKRIHSREK | 2.67 |
| DECEKAYFYMSCLVKHKRIHSREW | 1.92 |
| DCCEKAYFYMSCLVKHKRIHSREK | 1.52 |
| DENEKAYFYMSCLVKHKRIHSREK | 2.64 |
| DECEKAYFYMSCLVKHKRIHSRAK | 3.48 |
| DECEKATFYMSCLVKHKRIHSREK | 3 |
| DECCKAYFYMSCLVKHKRIHSREK | 2.01 |
| DECEKQYFYMSCLVKHKRIHSREK | 3.02 |
| DECEKAYFYMSCLVKHKRIHSRTK | 2.48 |
| DECEKAYFYMSCLVKHKRIHSRVK | 2.2 |
| DECEPAYFYMSCLVKHKRIHSREK | 3.51 |
| DECEKYYFYMSCLVKHKRIHSREK | 1.76 |
| DECEKAYVYMSCLVKHKRIHSREK | 3.23 |
| DECEKAYFYMKCLVKHKRIHSREK | 2 |
| DECEGAYFYMSCLVKHKRIHSREK | 3.13 |
| DECEKAYFYMSCLVKHWRIHSREK | 2 |
| DECEKAGFYMSCLVKHKRIHSREK | 3.38 |
| DECEKAYFYMSCLVKHKTIHSREK | 2.61 |
| DECEKAYFYMTCLVKHKRIHSREK | 2.94 |
| DVCEKAYFYMSCLVKHKRIHSREK | 1.57 |
| DECEKAYFYMSVLVKHKRIHSREK | 2.42 |
| DECEKALFYMSCLVKHKRIHSREK | 2.26 |

| Variant | protein stability index |
| --- | --- |
| DECEKAYFYMSCLVKDKRIHSREK | 3.25 |
| DECEKAYFYMSCLVKHQRIHSREK | 2.3 |
| DECEKAKFYMSCLVKHKRIHSREK | 3.57 |
| DECEKAYFYMSCLVKHKRIHSREH | 2.72 |
| DECEKAYFFMSCLVKHKRIHSREK | 2.66 |
| DECEKFYFYMSCLVKHKRIHSREK | 1.64 |
| DECEKAYFYHSCLVKHKRIHSREK | 3.47 |
| DECEKAYFYMSCLVKHKKIHSREK | 2.79 |
| DECEKANFYMSCLVKHKRIHSREK | 3.61 |
| DECEKAYFYMSCVVKHKRIHSREK | 2.98 |
| DECEKAYFYMSCLVKHCRIHSREK | 1.83 |
| DECSKAYFYMSCLVKHKRIHSREK | 2.48 |
| DECEKAHFYMSCLVKHKRIHSREK | 3.35 |
| DECEKAYFYMSCLVKHKEIHSREK | 2.59 |
| DECEKAYFYMSCLVKHKRIHSREC | 1.55 |
| DECEKAYFYMSCLVKHKRIHSREE | 3.45 |
| DECEKAYFYMSCLVKHERIHSREK | 2.54 |
| DECEKAYFYMSCLVAHKRIHSREK | 2.56 |
| DECEKAYFYMSCLVKHKRIHSMEK | 2.22 |
| DECEKAYFYMSCLVKHKRCHSREK | 3.2 |
| DECEKAYFQMSCLVKHKRIHSREK | 3 |
| DECEKAYCYMSCLVKHKRIHSREK | 2.96 |
